The values that follow come from patent US20250215403A1, “Compositions and Methods for Cardiac Tissue Regeneration” (Temple University - Of The Commonwealth System Of Higher …, priority 2022, published 2025).

One data set concerns β-catenin. The data set is described as follows: β-catenin immunostaining in CM nucleus and cytoplasm. Conditions: NRVM; 48 hours after modRNA. The class given is cell-based, rat. Here is the method:
Mice hearts were harvested, weighed, and fixed in 4% PFA/PBS overnight on shaker and then washed with PBS for 1 hour and incubated in 30% sucrose/PBS at 4° C. for 12-18 hours. Hearts were then fixed in OCT and frozen at −80° C. (Magadum A., et al., Circulation. 2020, 141 (15): 1249-1265). Transverse heart sections (6-8 μm) were made using a cryostat. Frozen sections were rehydrated in PBS for 5-10 min followed by permeabilization with PBS with 0.1% Triton™ X100 (PBST) for 7-8 min. Heart sections were then treated with 3% H2O2 for 5 min and washed (3×5 min) with PBST. The samples were then blocked with PBS+10% Donkey normal serum+0.1% Triton™ X100 (PBSST) for 1 hour at room temperature. Primary antibodies (see complete list of primary antibodies used for this Example in Table 2 below) diluted in PBST were added and incubated overnight at 4° C. […] For immunostaining with wheat germ agglutinin (WGA) for CM size quantification, images were captured at 40× magnification, and ImageJ was used to determine the area of each cell. Quantitative analyses involved counting of multiple fields from 5-8 mouse hearts per group, and 3-4 sections/heart (˜50 cells per field assessed, for a total ˜250 cells per sample). […] BrdU positive CMs were counted in multiple fields from three independent samples per group and 3 sections/heart. The total number of CMs counted was ˜1-1.5×10^3 CMs per section. […]

Data set [1] is described as follows: HPLC measurements of oxidative stress (ROS, GSH/GSSG, NADPH, NADH) in heart post-MI. The class given is in vivo, mouse. Here is the method:
ROS production in heart tissue was measured using HPLC for dihydroethidium (DHE) oxidation products (Magadum A., et al., Circulation. 2020, 141 (15): 1249-1265). Immediately after harvesting hearts, a 20 mg segment of heart tissue was cut into small pieces and incubated with DHE (100 μM) in PBS containing DTPA (100 μM) at 37° C. for 30 min. The sample was washed with PBS/DTPA, extracted with acetonitrile (500 μl) and briefly sonicated (3× 30 sec, 8W). After centrifugation (13,000×g, 10 min at 4° C.), the supernatant was collected and dried under vacuum, and pellets stored at −20° C. in the dark until analysis. Samples were resuspended in 120 μl PBS-DTPA and injected into the HPLC system. The superoxide-specific DHE oxidation product 2-hydroxyethidine (EOH) was quantified by comparison of the peak signal between samples and standard solutions under identical chromatographic conditions, and expressed as EOH/mg tissue.
The level of glutathione (GSH) in heart tissue was measured by an HPLC method with electrochemical detection, as previously described (Magadum A., et al., Circulation. 2020, 141 (15): 1249-1265). Heart samples were homogenized in a 100 mM acetate buffer (pH 5.4, containing 10 μM DTPA). A small aliquot was used to quantify total protein. The remaining sample was deproteinized with 10% TCA, centrifuged at 10,000×g for 5 min at 4° C., the supernatant filtered (0.45 μm) and stored at −80° C. Samples were injected onto a C18 column (Phenomenex C18, 3 μm, 150×4.6 mm) and eluted at 0.5 ml/min using an isocratic mobile phase solution (25 mM NaH2PO4, 1 mM 1-octane sulfonic acid, 6% acetonitrile, pH 2.6, H2O with phosphoric acid). GSH levels were quantified by comparison to standards subjected to the same HPLC conditions. Glutathione disulfide (GSSG) levels were indirectly determined by its enzymatic reduction with glutathione reductase (0.6 U/ml plus 0.2 mg/ml NADPH) for 30 min. The reaction was stopped by adding 5% TCA on ice. The GSH levels were normalized by the amount of protein. GSSG quantification was achieved by the difference between total reduced GSSG to total GSH in each sample.

B1: PSAT1 modRNA: modified mRNA with N1-methylpseudouridine, transcribed in vitro, encoding phosphoserine aminotransferase 1 (ORF SEQ ID NO: 1, RNA SEQ ID NO: 2) (nucleic acid)
chain: AUGGAAGCCACCAAGCAAGUGGUUAACUUUGGGCCCGGGCCUGCCAAGCUGCCACACUCGGUAUUGUUGGAGAUCCAGAAGCAGCUACUAGACUACAGAGGACUCGGCAUCAGUGUGCUCGAAAUGAGUCACAGGUCAUCAGAUUUUGCCAAGAUUAUUGGCAAUACAGAGAAUCUUGUGAGGGAAUUGCUAGCUGUUCCCAACAACUACAAGGUGAUCUUUGUACAAGGAGGUGGGUCUGGCCAGUUCAGUGCUGUCCCCUUAAAUCUGAUUGGCCUGAAAGCUGGAAGGAGUGCUGACUACGUGGUGACCGGAGCUUGGUCAGCUAAGGCUGCGGAAGAAGCCAAGAAGUUUGGAACGGUGAACAUUGUCCACCCUAAACUUGGAAGUUACACAAAAAUUCCAGACCCAAGCACCUGGAACCUCAACCCGGACGCCUCCUAUGUAUACUUCUGUGCAAACGAGACUGUGCACGGGGUGGAGUUUGACUUCGUACCUGACGUCAAGGGAGCGGUGCUGGUCUGUGACAUGUCCUCAAACUUCUUAUCCAGGCCGGUGGAUGUUUCCAAGUUUGGUGUGAUUUUCGCUGGUGCUCAGAAGAAUGUUGGCUCUGCCGGGGUGACGGUGGUGAUUGUCCGGGAUGACCUGCUGGGGUUCUCGCUCAGAGAGUGCCCAUCAGUCCUUGACUACAAAGUGCAGGCUGGGAACAACUCUUUGUAUAACACACCUCCGUGCUUCAGCAUCUACGUCAUGGGCAUGGUCCUGGAAUGGAUCAAGAACAACGGCGGGGCCGCAGCCAUGGAGAAGCUCAGCUCCAUCAAAUCCCAAAUGAUUUAUGAGAUCAUUGAUAAUUCUCAAGGAUUUUAUGUAUGCCCAGUGGAGCGCCAGAAUAGAAGCAGGAUGAACAUCCCAUUUCGCAUUGGCAACGCCAAAGGAGACGAAGCUUUGGAAAAGCGGUUUCUUGACAAGGCGGUAGAACUCAACAUGAUCUCCUUGAAGGGGCACAGGUCAGUGGGAGGCAUUCGUGCCUCUCUGUAUAACGCUGUCACAACCGAAGACGUUGAGAAGCUGGCGGCCUUCAUGAAGAAUUUCUUGGAGAUGCAUCAGCUGUGA
modifications: N1-methylpseudouridine
As for B1, in the data set on β-catenin, the “stabilized β-catenin localisation to CM nuclei” value is on record as “translocated” and the β-catenin stabilization entry is “significantly induced”. Besides, in data set [1] (heart post-MI), the GSH/GSSG ratio result is on record as “significantly increased”. For the same molecule, the “levels of superoxide and other ROS” value in data set [1] (heart two days post-MI, DHE probe) is recorded as “reduced”. Also, in data set [1] (two days post-MI), the NADH level entry is “increased” and the NADPH level entry is “increased”.
